{"source": "the DeepSol protein solubility set", "data": [{"assay": "soluble on expression in E. coli; label from the status in PepcDB or PDB records", "values": [{"sequence": "MSTHLQGSLFDQTDELGLGPLDGLRRTVLGAGAWIDLLPGWLSGADALFERLAADVPWRAERRKMYDQTVDVPRLLAYYRAGDTLPHPVLAEARDALSAHYVAELGEPFTTAGLCYYRDGRDSVAWHGDRIGRGAREDTMVAILSVGAPRDLALRPRGGGDVLRRPLGHGDLIVMGGSCQRTWEHAIPKSTRAAGPRISIQFRPSGVNLEHHHHHH", "soluble on expression in E. coli": "soluble"}, {"sequence": "GPGSMKRLLDSAKHLLRGGSLGYLASGEPYHPFGEDFGLTVFPDYIQLREKLALRSGYVDVYTQRSASIKLSDGRFQLPPLPKHSFLPLVERLEQDGIVPRGWLNNQTANLYEPEDFIRAHIDNLFVYDDIFAVISLGANALLRFVHVQNGEELDVVIPDGSVYIMSGPSRYVYFHMVLPVEAQRVSIVFRRSILNSDGGFRPVSTPLGDLMPYRSTQILNTLYAKQIGGVRVAVDDKYLEKEEIGAFDTGKWVKGLHPLRDWTLLSQLDEDEARVLELREKRYLDVDLSWRFTELRKRYKELEDMLRV", "soluble on expression in E. coli": "not soluble"}, {"sequence": "MALIGRQTTIQMIDLEPELPTQKDYQSDILRELTQIRNENLEYNRLEVYVLELEQIMRIRMIVDLLDLGGRLNSETLLQMCYRLVNQETDLENLRNFRDSQFAQEEQRRDRLREIGQRIFNRFEQQQEEAAGNREGSEAGERPSKENIEFRIWRFLSVLQHQDGLERLDELEREIAVRREMNAADQFQEGQDFFARINPDIVAEGIPHHNNRDNIPIERQYRTEFIQLANDLQSPPDDVRLDVFRRLIDLGVQFQESRLEQDRQRIQEEPQRQREGEIMDQLNDSVKGDMRRLNPMAPGNASGNIQQEGAGIETDVDVDDELEDEYSGSDSSQDVEEVPEESSERYVADTGSATNQPSSSTSEPNAGNEEVEDPSQRTRKRGNGSELSDAKRTN", "soluble on expression in E. coli": "soluble"}, {"sequence": "YEPEGNRADYWRFARALYAAGFRAGELAYNCFSYHFTPAGSMMETAAHAVGCTVFPGGTGQTEQQVRAIHDLAPSGYTGTPSFLKLILEKADELGIRLDSLRRALVSGEAFPPSLRDWLAARGIEGYQAYGSADLGMIAFETPAREGLVVGED", "soluble on expression in E. coli": "not soluble"}, {"sequence": "ARLGNWEFDLETNVFTCSEESCRIFGIRDHRQGKSHRALMRRVHPEDRVTVKKAIFQAFRTGVGYCMDHRIVLDDGVERIVSQHAELLSADDGRTSRLVGTVHDIT", "soluble on expression in E. coli": "not soluble"}, {"sequence": "MSLSRTTQLPFAKRQFFQVLARNYSNTQDADLVVIGGGPGGYVAAIKAAQLGMKTVCVEKNATLGGTCLNVGCIPSKALLNNSHYLHMAQHDFAARGIDCTASLNLPKMMEAKSNSVKQLTGGIKQLFKANKVGHVEGFATIVGPNTVQAKKNDGSVETINARNILIASGSEVTPFPGITIDEKQIVSSTGALSLGQVPKKMVVIGAGVIGLELGSVWQRLGAEVTAVEFLGHVGGMGIDGEVSKNFQRSLTKQGFKFLLNTKVMGASQNGSTITVEVEGAKDGKKQTLECDTLLVSVGRRPYTEGLGLSNVQIDLDNRGRVPVNERFQTKVPSIFAIGDVIEGPMLAHKAEDEGILCVEGIAGGPVHIDYNCVPSVVYTHPEVAWVGKAEEQLKQEGVAYKIGKFPFVANSRAKTNNDQEGFVKVLADKQTDRMLGVHIIGPNAGEMIAEATLAMEYGASAEDVARVCHPHPTLSEAFREANLAAYCGKAINNV", "soluble on expression in E. coli": "not soluble"}, {"sequence": "MGSDKIHHHHHHMPSDASRRLYERLGIPLLPMDSPFGPEYPIGNKFAALALGPAVGHTLFLDSDMICVDAFEADMLCRFDAALKPADMALVAKQNDYWERIYAHAGSALPGDRVVTTCSGEAMPAYYNAGFILVRDARRFAEVWYRLAERVHADPLITNKMPWLDQLTLPVALHALNYKTRALSERFNYPLHIKPLSAASLPPFFCHYHSLDTLVSERSLWAELDELAKRFPELREVLALDANWKKAILAPAPRLAFSEGDSTGTVEAGQDLVITGIPRSGTSHLCRLLSQQPDTVVLNEPPQVFEALKLSPLPWGLPRYYAELRRDILAGRPVPNKHVNGRLVDDTARGNDQSSDYFAEVRGASFHLGTKNTLAYIARLPLIRKVMPTALLIATIRHPYDTLNSWANTFEHLRQAAVERQPFGCPDDLALTGWQRKALLAIADTDHLAVRRALWWRYLALQLEDAGDYVQLLRYEDFVEAPQTTLAALRNNRPLPFDEPAVWSKGLAPDEQELVANIVCDVAERFHYVL", "soluble on expression in E. coli": "not soluble"}, {"sequence": "MGSDKIHHHHHHMDDFDTPVTGNAYGNNTIKEQRTISIANLKEKYSSVISANQFQTVTEETRISGVVVGDDESGNIYKQLIVADETGAIVVGINSTGIYANCPVGQKVVIDCENLNVGGYGMQAQIGTTYKGAIGRMDLAVWLDHVRVINKPQLWYDELIPMELTGAQLKAYDKDLAPVLVMFKDVTIKEADGTATFAPEDLKDGGNGVNRTLVLDDNSTLTFRTSTYANFSTEVMPTGKINVIGILSRYNSTWQIVARTYSDIQRNN", "soluble on expression in E. coli": "not soluble"}]}]}
